The source of these data is US6462178B1, “G protein” (Yong Hou Wong, priority 1999, dated 2002).

Where two headings read alike, the source gives them in different places.

Assay [1] has as its target T1, dopamine D2 receptor (Homo sapiens, UniProt P14416). To be noted: COS-7, receptor + Gα16, 10 μM dopamine, cited from earlier work.
Assay [2] deals with T1, dopamine D2 receptor. To be noted: 10 μM dopamine; for IP Formation % Res.: relative to basal.
In assay [3] the target is δ-opioid receptor.
The target in assay [4] is δ-opioid receptor. The source holds these as a separate data set.
Assay [5] has as its target somatostatin-1 receptor (SSTR1).
The target in assay [6] is formyl peptide (fMLP) receptor.
Assay [7] has as its target dopamine D2 receptor.
A further assay addresses T2, melatonin Mel1b receptor.
T2 sequence (P49286 whole entry, species assumed, looked up): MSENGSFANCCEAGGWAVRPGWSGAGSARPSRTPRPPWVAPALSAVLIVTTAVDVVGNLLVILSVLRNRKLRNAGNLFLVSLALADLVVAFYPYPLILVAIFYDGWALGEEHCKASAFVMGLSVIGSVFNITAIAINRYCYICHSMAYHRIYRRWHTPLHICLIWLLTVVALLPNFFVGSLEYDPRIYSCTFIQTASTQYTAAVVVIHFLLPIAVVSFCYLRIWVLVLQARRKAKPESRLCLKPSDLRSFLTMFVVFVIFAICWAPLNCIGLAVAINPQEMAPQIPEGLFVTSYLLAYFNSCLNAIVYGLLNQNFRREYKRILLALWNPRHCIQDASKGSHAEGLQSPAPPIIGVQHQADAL

Setting [8] is: COS-7, receptor + 16z25 chimera.
Setting [9] is: COS-7, receptor + 16z44 chimera.

T1 sequence (P14416 whole entry): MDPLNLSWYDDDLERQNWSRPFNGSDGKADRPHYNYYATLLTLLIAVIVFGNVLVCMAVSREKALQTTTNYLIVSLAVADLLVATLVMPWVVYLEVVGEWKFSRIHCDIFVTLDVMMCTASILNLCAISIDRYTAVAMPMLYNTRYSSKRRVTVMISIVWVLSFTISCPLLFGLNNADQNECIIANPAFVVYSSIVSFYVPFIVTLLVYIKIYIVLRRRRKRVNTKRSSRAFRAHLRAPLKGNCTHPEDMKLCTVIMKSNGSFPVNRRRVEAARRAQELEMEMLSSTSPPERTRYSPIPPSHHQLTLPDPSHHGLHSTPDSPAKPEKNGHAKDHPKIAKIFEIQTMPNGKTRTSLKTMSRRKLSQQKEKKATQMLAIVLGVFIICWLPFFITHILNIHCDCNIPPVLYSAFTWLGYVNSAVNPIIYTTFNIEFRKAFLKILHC
T1 sequence (P14416 whole entry): as above

On to `NCCc1ccc(O)c(O)c1` [dopamine], for which the “IP Formation Agonist” value was 24.0 ± 2.3 on dopamine D2 receptor [1], 40.1 ± 0.9 at dopamine D2 receptor [2] (setting [8]) and 84.5 ± 6.2 on dopamine D2 receptor [2] (setting [9]). Further, the figures for the “IP Formation % Res.” value on dopamine D2 receptor [1] (relative to basal), on dopamine D2 receptor [2] (setting [8]) and at dopamine D2 receptor [2] (setting [9]) were 207a %, 324% and 302%, respectively.

For [D-Pen^2,D-Pen^5]enkephalin (peptide), the IP formation with agonist (cells coexpressing 16z44) (IP formation (unit not given)) with δ-opioid receptor [3] was found to be 122. In the assay with δ-opioid receptor [4], the EC50 for IP formation (cells coexpressing 16z44) worked out at 10 nM and the EC50 for IP formation (cells coexpressing Gα16) was found to be 40 nM.

In the assay with bombesin receptor, bombesin (peptide) registered an IP formation with agonist (control cells without 16z44) (IP formation (unit not given)) of 149.

In assay [5], somatostatin (peptide) displayed an EC50 for IP formation (cells coexpressing 16z44) of 3 nM and an EC50 for IP formation (cells coexpressing Gα16) of 20 nM.

B1: 16z25 chimera (protein)
chain: MARSLTWRCCPWCLTEDEKAAARVDQEINRILLEQKKQDRGELKLLLLGPGESGKSTFIKQMRIIHGAGYSEEERKGFRPLVYQNIFVSMRAMIEAMERLQIPFSRPESKHHASLVMSQDPYKVTTFEKRYAAAMQWLWRDAGIRACYERRREFHLLDSAVYYLSHLERITEEGYVPTAQDVLRSRMPTTGINEYCFSVQKTNLRIVDVGGQKSERKKWIHCFENVIALIYLASLSEYDQCLEENNQENRMKESLALFGTILELPWFKSTSVILFLNKTDILEEKIPTSHLATYFPSFQGPKQDAEAAKRFILDMYTRMYTGCVDGPEGSKKGARSRRLFSHYTCATDTSNIQFVFDAVTDVIIQNNLKYIGLC
Turning to B1, the IP formation (PLC stimulation), % Res. with κ-opioid receptor turned out to be 188 % Res; with melatonin Mel1a receptor, 150 % Res; with adenosine A1 receptor it was 197 % Res; with δ-opioid receptor [3], 287 % Res; in assay [6] it was 352 % Res; with dopamine D2 receptor [7] it was 324 % Res. Besides, the IP formation (PLC stimulation), % Res. with β2-adrenergic receptor stood at 360 % Res; in the assay with α2-adrenergic receptor it was 365 % Res; in the assay with melatonin Mel1b receptor, 155 % Res; in the assay with melatonin Mel1c receptor it was 270 % Res; with vasopressin V2 receptor, 291 % Res; with dopamine D1 receptor, 214 % Res. Moreover, the IP formation (PLC stimulation), % Res. came out at 432 % Res with complement C5a receptor and 224 % Res with µ-opioid receptor.

B2: Gα16 (protein)
chain: MARSLTWRCCPWCLTEDEKAAARVDQEINRILLEQKKQDRGELKLLLLGPGESGKSTFIKQMRIIHGAGYSEEERKGFRPLVYQNIFVSMRAMIEAMERLQIPFSRPESKHHASLVMSQDPYKVTTFEKRYAAAMQWLWRDAGIRACYERRREFHLLDSAVYYLSHLERITEEGYVPTAQDVLRSRMPTTGINEYCFSVQKTNLRIVDVGGQKSERKKWIHCFENVIALIYLASLSEYDQCLEENNQENRMKESLALFGTILELPWFKSTSVILFLNKTDILEEKIPTSHLATYFPSFQGPKQDAEAAKRFILDMYTRMYTGCVDGPEGSKKGARSRRLFSHYTCATDTQNIRKVFKDVRDSVLARYLDEINLL
For the molecule B2, the IP formation (PLC stimulation), % Res. was found to be 327 % Res in the assay with κ-opioid receptor; 296 % Res with melatonin Mel1a receptor; 417 % Res with δ-opioid receptor [3]; 566 % Res in assay [6]; 730 % Res with α2-adrenergic receptor; 195 % Res with melatonin Mel1b receptor. Also, the IP formation (PLC stimulation), % Res. in the assay with melatonin Mel1c receptor came out at 115 % Res; in the assay with vasopressin V2 receptor, 332 % Res; with complement C5a receptor, 608 % Res; with µ-opioid receptor, 134 % Res.
